Assays:
[1] = molecular target: the molecule itself; test: SEC; analytical Superdex 75 10/300GL, 0.3 mL/min, 20 mM Tris pH 8.0, 200 mM NaCl, 0.5 mM TCEP; 100 uL of protein at 2 mg/mL loaded; calibrated with protein standards
[2] = molecular target: T1, DrRuvC (Deinococcus radiodurans, UniProt Q9RX75 1-179); test: EMSA; EMSA: 100 nM 6-FAM substrate, 50 mM Tris-HCl pH 8.0, 125 mM NaCl, 10 ug/mL BSA, 1 mM TCEP, 5% glycerol, 30 C 10 min; 5% native PAGE in 0.5x Tris-borate; conditions: protein: recombinant, tags: N-terminal His-MBP-TEV, removed by TEV, chain copies: 2, label: 5'-6-FAM on J31-1
T1 sequence: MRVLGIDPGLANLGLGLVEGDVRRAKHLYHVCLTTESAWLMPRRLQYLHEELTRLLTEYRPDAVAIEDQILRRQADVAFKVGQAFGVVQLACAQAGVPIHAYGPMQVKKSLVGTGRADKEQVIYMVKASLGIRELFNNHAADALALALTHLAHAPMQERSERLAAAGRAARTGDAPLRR

[3] = molecular target: T1, DrRuvC; test: EMSA; no obvious specific complex band; EMSA: 100 nM 6-FAM substrate, 50 mM Tris-HCl pH 8.0, 125 mM NaCl, 10 ug/mL BSA, 1 mM TCEP, 5% glycerol, 30 C 10 min; 5% native PAGE in 0.5x Tris-borate; conditions: protein: recombinant; tags: N-terminal His-MBP-TEV, removed by TEV; chain copies: 2; label: 5'-6-FAM on J31-1; blunt, nick between J31-5 and J31-7

B1: RuvC from Deinococcus radiodurans (enzyme, UniProt Q9RX75 1-179, looked up)
chain: MRVLGIDPGLANLGLGLVEGDVRRAKHLYHVCLTTESAWLMPRRLQYLHEELTRLLTEYRPDAVAIEDQILRRQADVAFKVGQAFGVVQLACAQAGVPIHAYGPMQVKKSLVGTGRADKEQVIYMVKASLGIRELFNNHAADALALALTHLAHAPMQERSERLAAAGRAARTGDAPLRR
notes: Holliday junction resolvase RuvC, Deinococcus radiodurans, full-length gene, residues 1 to 179, amplified from genomic DNA; Expressed from pET28-HMT (His-MBP-TEV); tag removed with TEV protease, so residues of the TEV site may be left at the N-terminus; also called DrRuvC; dr0440; source: E. coli Rossetta (DE3), purified (HisTrap, TEV cleavage, HisTrap, Heparin, Superdex 75); not shown: His6, …
In the case of B1, the “stoichiometry N” value [1] is reported as 2.

B2: mobile HJ (HJ31) (structured_DNA)
DNA 1: GCTAGCCACAGCCATTCGTACGATTGCGGGA
DNA 2: TCCCGCAATCGTACGAAACCGAGCACGATCT
DNA 3: AGATCGTGCTCGGTTTCGTACCAGATGCCAT
DNA 4: ATGGCATCTGGTACGAATGGCTGTGGCTAGC
Binder B2 has a Kd ([2]; four-way junction with mobile homologous core, 4 strands) of ~150 nM.

B3: immobile HJ (structured_DNA)
DNA 1: GCTAGCCACAGCCATTCGTACGATTGCGGGA
DNA 2: TCCCGCAATCGTCCGTTTCCGAGCACGATCT
DNA 3: AGATCGTGCTCGGAAAGCCTGCAGATGCCAT
DNA 4: ATGGCATCTGCAGGCAATGGCTGTGGCTAGC
For B3, the Kd ([2]; four-way junction, 4 strands) was ~150 nM.

B4: replication fork (structured_DNA)
DNA 1: GCTAGCCACAGCCATTCGTACGATTGCGGGA
DNA 2: TCCCGCAATCGTCCGTTTCCGAGCACGATCT
DNA 3: AGATCGTGCTCGGAAA
DNA 4: AATGGCTGTGGCTAGC
Binder B4 has a Kd ([2]; three-way junction with nick at junction, 4 strands) of ~410 nM.

B5: nicked duplex (dsDNA)
DNA 1: GCTAGCCACAGCCATTCGTACGATTGCGGGA
DNA 2: TCCCGCAATCGTACG
DNA 3: AATGGCTGTGGCTAGC
Binder B5 has a Kd [3] of ~408 nM.

B6: Y-junction (structured_DNA)
DNA 1: GCTAGCCACAGCCATTCGTACGATTGCGGGA
DNA 2: TCCCGCAATCGTCCGTTTCCGAGCACGATCT
DNA 3: AGATCGTGCTCGGAAAAATGGCTGTGGCTAGC
B6 showed a Kd ([2]; three-way junction, 3 strands) of ~425 nM.

B7: nicked HJ (structured_DNA)
DNA 1: GCTAGCCACAGCCATTCGTACGATTGCGGGA
DNA 2: TCCCGCAATCGTCCGTTTCCGAGCACGATCT
DNA 3: AGATCGTGCTCGGAAA
DNA 4: GCCTGCAGATGCCAT
DNA 5: ATGGCATCTGCAGGCAATGGCTGTGGCTAGC
Work on B7 yielded a Kd ([2]; 3'-OH and 5'-OH at nick, four-way junction, nick in strand opposite J31-1, 5 strands) of ~150 nM.

Source: publication PMC9601230 (mBio, 2022)
